Measurements: PMC11565934 (bioRxiv, 2024)

Biological target: myristylated PKA-Cα K7C (mouse, UniProt P05132 1-351, K7C, N-terminal myristylation)
Test: SPR

B1: phosphorylated SMO IFR→AAA (I573A, F577A, R580A; FLAG-tagged mouse SMO 64-674) in nanodiscs (receptor)
chain: LLSHCGRAAHCEPLRYNVCLGSALPYGATTTLLAGDSDSQEEAHGKLVLWSGLRNAPRCWAVIQPLLCAVYMPKCENDRVELPSRTLCQATRGPCAIVERERGWPDFLRCTPDHFPEGCPNEVQNIKFNSSGQCEAPLVRTDNPKSWYEDVEGCGIQCQNPLFTEAEHQDMHSYIAAFGAVTGLCTLFTLATFVADWRNSNRYPAVILFYVNACFFVGSIGWLAQFMDGARREIVCRADGTMRFGEPTSSETLSCVIIFVIVYYALMAGVVWFVVLTYAWHTSFKALGTTYQPLSGKTSYFHLLTWSLPFVLTVAILAVAQVDGDSVSGICFVGYKNYRYRAGFVLAPIGLVLIVGGYFLIRGVMTLFSIKSNHPGLLSEKAASKINETMLRLGIFGFLAFGFVLITFSCHFYDFFNQAEWERSFRDYVLCQANVTIGLPTKKPIPDCEIKNRPSLLVEKINLFAMFGTGIAMSTWVWTKATLLIWRRTWCRLTGHSDDEPKRIKKSKMAAKAASKARELLQNPGQELSFSMHTVSHDGPVAGLAFDLNEPSADVSSAWAQHVTKMVARRGAILPQDVSVTPVATPVPPEEQANMWLVEAEISPELEKRLG
modifications: GRK2/3-phosphorylated; mapped sites pS560, pS594, pT597, pS599, pS615, pS642, pT644, pT648
B1 was tested, and the Kd was 222 nM.
